Experimental findings from patent US7070771 are described below.

In the test the target is CD40 (human, on CLL B cells and CD40-positive tumor cell lines) (human) (UniProt P25942). The test can be described thus: cell-based or functional assay.
Chain of UniProt P25942 (P25942 21-277): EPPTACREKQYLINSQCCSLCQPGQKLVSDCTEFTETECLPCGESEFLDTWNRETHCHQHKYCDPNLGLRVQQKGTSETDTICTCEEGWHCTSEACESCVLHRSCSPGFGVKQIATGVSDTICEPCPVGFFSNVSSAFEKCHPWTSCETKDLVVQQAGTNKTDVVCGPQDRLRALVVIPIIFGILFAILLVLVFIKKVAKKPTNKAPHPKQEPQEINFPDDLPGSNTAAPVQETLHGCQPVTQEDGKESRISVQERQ

The substance “G28-5 (an anti-CD40 monoclonal antibody)” displayed a % positive cells, Human CD80 (CLL cells) of 26.7%.
